According to patent US20210380699A1 (published 2021):

Assays:
[1] = target: T1, Human PD-L1 expressed on cells (human, UniProt Q9NZQ7 19-290); test: cell-based or functional assay
[2] = target: T1, Human PD-L1 expressed on cells; test: cell-based or functional assay; remark: listed apart in the source
Mouse PD-L1 ECD His = target: T2, Mouse PD-L1 ECD His (mouse, UniProt Q9EP73 19-239); test: SPR 25C and 37C
T2 construct: also called mouse PD-L1 (his-tagged)

[3] = target: T1, Human PD-L1 expressed on cells; test: flow cytometry on CHO hPD-L1 cells, competitor biotin-PD-1-Fc, n = 1
Experimental: (§1) 150 μL FACS buffer is added and cells washed as described above. […] Cells are incubated at 4° C. for 60 minutes. Cells are washed twice with 150 μL FACS buffer, centrifuging at 300 g for 3 minutes after each wash step and aspirating supernatant. Cells are fixed, washed and resuspended for analysis as above. APC signal intensity (geometric mean) is measured by flow cytometry using a Beckman Coulter CYTOFLEX instrument. Data is plotted as percentage of receptor binding.

[4] = target: T3, Human PD-L1 His (human PD-L1 ECD with C-terminal His tag) (human, UniProt Q9NZQ7 19-238); test: ELISA, biotin-PD-L1 to plate-bound PD-1, antibody titrated
T3 construct: Biotinylated in ELISA and AlphaScreen assays; also called hPD-L1-his; biotinylated PD-L1 his
T3 sequence (Q9NZQ7 19-238 limits assumed): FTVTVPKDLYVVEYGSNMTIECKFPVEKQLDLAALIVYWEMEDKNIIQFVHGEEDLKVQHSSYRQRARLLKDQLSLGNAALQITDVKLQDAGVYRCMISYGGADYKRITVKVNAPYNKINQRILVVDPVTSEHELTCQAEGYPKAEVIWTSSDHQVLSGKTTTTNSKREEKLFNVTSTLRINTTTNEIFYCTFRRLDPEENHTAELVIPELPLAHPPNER
Experimental: (§2) Excess protein was removed by washing with PBS-Tween (0.1% v/v) and the wells were blocked with 1% w/v bovine serum albumin (BSA, Sigma) in PBS for 1 hour at room temperature, after which plates were washed with PBS-Tween as above. 60 μL of a titration (three-fold serial dilution) of antibody was added to a 96-well, non-binding plate diluted in ELISA assay buffer (PBS +0.1% BSA). […] The plate was incubated for 30 minutes before transferring 50 μL to the coated plates. The coated plates were incubated for 1 hour at room temperature. Excess protein was removed by washing with PBS-Tween (0.1% v/v). PD-L1 binding was detected using streptavidin labelled europium (Perkin Elmer) diluted 1/1000 in DELFIA assay buffer (Perkin Elmer). The plates were washed with TBS (Tris buffered saline)-Tween (0.1% v/v) and 50 μL/well of DELFIA Enhancement solution (Perkin Elmer) was added to the plate. Time-resolved fluorescence was measured at 615 nm on an Envision plate reader (PerkinElmer). Percentage specific binding was calculated as defined in Equation 3. IC50 values were determined using GraphPad Prism software by curve fitting using a four-parameter logistic equation (Equation 4). Values for KM121 antibodies are a mean of three independent experiments. Values for KM122 are from a single experiment.

[5] = target: T1, Human PD-L1 expressed on cells; test: flow cytometry on CHO hPD-L1 cells, competitor biotin-CD80-Fc, n = 1
Experimental: as §1
(§3) All other steps are performed as per plate 2.

[6] = target: T3, Human PD-L1 His (human PD-L1 ECD with …); test: ELISA, biotin-PD-L1 to plate-bound CD80, antibody titrated
Experimental: as §2

[7] = target: T3, Human PD-L1 His (human PD-L1 ECD with …); test: SPR 25C, antibody captured, PD-L1 analyte
Experimental: (§4) Label-free surface plasmon resonance (SPR) analysis was carried out on the ProteOn XPR36 (BioRad) array SPR machine. An anti-human IgG capture surface was created on a GLC biosensor chip using a combination of anti-human Fc antibodies (Jackson Labs 09-005-008,109-006-008 and 309-006-008) by amine coupling. […] The data was analysed using the 1:1 model inherent to the ProteOn XPR36 analysis software.

[8] = target: T4, Cyno PD-L1 FLAG (cynomolgus PD-L1 ECD with FLAG tag) (cynomolgus monkey); test: SPR 25C, antibody captured, PD-L1 analyte
T4 construct: also called cynomolgus monkey PD-L1-FLAG
T4 sequence (chain, as listed by the source limits assumed): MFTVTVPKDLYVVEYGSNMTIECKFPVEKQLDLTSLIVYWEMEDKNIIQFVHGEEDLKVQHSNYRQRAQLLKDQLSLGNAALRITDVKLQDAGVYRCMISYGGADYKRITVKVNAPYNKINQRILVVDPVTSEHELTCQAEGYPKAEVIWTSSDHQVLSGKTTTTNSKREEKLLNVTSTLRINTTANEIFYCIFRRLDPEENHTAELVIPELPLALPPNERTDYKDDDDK
Experimental: as §4

[9] = target: T3, Human PD-L1 His (human PD-L1 ECD with …); test: SPR 37C, antibody captured, PD-L1 analyte
[10] = target: T4, Cyno PD-L1 FLAG (cynomolgus PD-L1 ECD …); test: SPR 37C, antibody captured, PD-L1 analyte
[11] = target: T1, Human PD-L1 expressed on cells; test: cell-based or functional assay; remark: listed apart in the source
[12] = target: T1, Human PD-L1 expressed on cells; test: flow cytometry on CHO hPD-L1 cells, competitor biotin-PD-1-Fc, n = 2
Experimental: as §1

[13] = target: T1, Human PD-L1 expressed on cells; test: flow cytometry on CHO hPD-L1 cells, competitor biotin-CD80-Fc, n = 2
Experimental: as §1, §3

T1 sequence (Q9NZQ7 19-290 limits assumed): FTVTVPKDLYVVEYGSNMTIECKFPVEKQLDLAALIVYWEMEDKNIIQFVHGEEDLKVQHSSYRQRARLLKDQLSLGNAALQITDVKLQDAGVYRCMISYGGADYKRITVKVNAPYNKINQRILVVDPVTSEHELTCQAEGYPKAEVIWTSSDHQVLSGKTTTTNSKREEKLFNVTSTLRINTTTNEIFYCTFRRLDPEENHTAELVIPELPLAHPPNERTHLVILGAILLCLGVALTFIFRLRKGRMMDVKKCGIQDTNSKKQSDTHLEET
T2 sequence (Q9EP73 other isoform, or with tags, fused parts or gaps): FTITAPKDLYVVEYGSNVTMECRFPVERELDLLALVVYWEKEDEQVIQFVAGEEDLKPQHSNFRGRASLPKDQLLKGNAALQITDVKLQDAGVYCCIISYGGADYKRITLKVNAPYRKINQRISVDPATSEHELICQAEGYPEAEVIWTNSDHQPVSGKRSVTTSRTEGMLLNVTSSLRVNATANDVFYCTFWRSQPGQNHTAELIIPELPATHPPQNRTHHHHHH

EC50, IL-2 induction, murine T cell hybridoma assay, n = 1 [1] [nM] | EC50, IL-2 induction, murine T cell hybridoma assay, n = 2 [1] [nM] | EC50, IL-2 induction, murine T cell hybridoma assay, n = 3 [1] [nM] | mean EC50, IFNγ induction, monocyte-T cell co-culture [2] [nM] | mean fold increase IFNγ, monocyte-T cell co-culture [2] [fold] | binding result (Mouse PD-L1 ECD His) | IC50 [3] [nM] | IC50 [4] [nM] | IC50 [5] [nM] | IC50 [6] [nM] | Kd [7] [nM] | Kd [8] [nM] | Kd [9] [nM] | Kd [10] [nM] | EC50, ADCC reporter assay, n = 1 [11] [nM] | EC50, ADCC reporter assay, n = 2 [11] [nM] | EC50, ADCC reporter assay, n = 3 [11] [nM] | max fold induction, ADCC reporter assay, n = 1 [11] [fold] | max fold induction, ADCC reporter assay, n = 2 [11] [fold] | max fold induction, ADCC reporter assay, n = 3 [11] [fold] | Binder | also measured
0.29 | 0.11 | 0.29 | 0.082 | 2.85 | no binding | 1.07 | 2.02 | 1.09 | 1.1 | 0.024 | 0.015 | 0.05 | 0.046 | 0.0219 | 0.0209 | 0.0275 | 13.2 | 16.4 | 23.4 | 413G05 (antibody, human IgG1, kappa, V domains shown) VH: QVQLVESGGGLVKPGGSLRLSCAASGFTFSDYYMSWIRQVPGKGLEWVSYISTSGSTIYYADSVKGRFTISRDNAKNSLYLQMNSLRAEDAAVYHCARGITGTNFYHYGLGVWGQGTTVTVSS VL: DIQMTQSPSSVSASVGDRVTITCRASQGINSWLAWYQQKPGKAPKLLIYAASTLQSGVPSRFSGSGSGADFTLTISSLQPEDFATYYCQQVNSFPLTFGGGTKVEIKR | IC50 [12]: 1.17 nM; IC50 [13]: 1.17 nM
0.59 | 0.3 | 0.18 | 0.012 | 3.33 | no binding | 0.95 | 1.84 | 1.26 | 1 | 0.172 | 0.192 | 0.778 | 0.794 | 0.0191 | 0.015 | 0.0242 | 10.9 | 20.1 | 31.5 | 414B06 (antibody, V domains shown, also called 414606) VH: EVHLVESGGGLVQPGGSLRLSCAASGFTFSSYWMNWVRQAPGKGLEWVANIKQDGSEKYYVDSVKGRFTVSRDNAKNSLYLQMNSLRAEDTAVYYCARVRQWSDYSDYWGQGTPVTVSS VL: DIQMTQSPSSVSASVGDRVTITCRASQGISSWLAWYQQKPGKAPKLLIYAASSLQSGVPSRFSGSGSGTDFTLTISSLQPEDFATYYCQQANSFPFTFGPGTKVDIKR | IC50 [12]: 1.22 nM; IC50 [13]: 1.22 nM
